Experimental data: publication PMC10371798 (2023)

B1: Fg domain of human tenascin-C (amino acid residues 1975-2201) (domain or fragment)
chain: GLLYPFPKDCSQAMLNGDTTSGLYTIYLNGDKAEALEVFCDMTSDGGGWIVFLRRKNGRENFYQNWKAYAAGFGDRREEFWLGLDNLNKITAQGQYELRVDLRDHGETAFAVYDKFSVGDAKTRYKLKVEGYSGTAGDSMAYHNGRSFSTFDKDTDSAITNCALSYKGAFWYRNCHRVNLMGRYGDNNHSQGVNWFHWKGHEHSIQFAEMKLRPSNFRNLEGRRKRA
B2: Fg domain of human tenascin-R (amino acid residues 1129-1358) (domain or fragment)
chain: GRVFPHPQDCAQHLMNGDTLSGVYPIFLNGELSQKLQVYCDMTTDGGGWIVFQRRQNGQTDFFRKWADYRVGFGNVEDEFWLGLDNIHRITSQGRYELRVDMRDGQEAAFASYDRFSVEDSRNLYKLRIGSYNGTAGDSLSYHQGRPFSTEDRDNDVAVTNCAMSYKGAWWYKNCHRTNLNGKYGESRHSQGINWYHWKGHEFSIPFVEMKMRPYNHRLMAGRKRQSLQF

Target: CA-FN domains of human RPTPζ (amino acid residues 34-410) fused to human IgG1 Fc, purified (human, UniProt P23471 34-410)
Test: AlphaScreen competition with biotinylated TNC(Fg)

Binder | IC50
B1 | 43 nM
B2 | 47 nM
